In data set [1] the test system is HeLa Kyoto. The experiment in a line: solubility in G1/S (NP-40 vs SDS abundance) (log2 ratio); higher = more soluble. The conditions noted are these: cell cycle stage: G1/S.
The test system of data set [2] is HeLa Kyoto. The experiment in a line: melting temperature (median over replicates), in situ; higher = more thermally stable.
Data set [3] has as its system HeLa Kyoto. Description: solubility change mitosis vs G1/S (difference of NP-40 vs SDS log2 ratios) (log2 ratio difference); higher = more soluble in mitosis.
The test system of data set [4] is HeLa Kyoto. The experiment in a line: thermal stability score vs G1/S (z-score of summed log2 fold changes over temperatures); higher = more thermally stable than in G1/S.
Where [5] appears, read: cell cycle stage: early G1 (4.5 h after nocodazole release).
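Wherever melting temperature (median over replicates), in situ is given: HeLa Kyoto cells synchronized by double thymidine or nocodazole block, proteins quantified by TMT10plex mass spectrometry, three independent biological replicates.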
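Wherever solubility change mitosis vs G1/S (difference of NP-40 vs SDS log2 ratios) is given: synchronized HeLa Kyoto cells (double thymidine block for G1/S, nocodazole release for mitosis), protein amounts in NP-40 versus SDS lysates quantified by mass spectrometry, three biological replicates.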
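Wherever solubility in G1/S (NP-40 vs SDS abundance) is given: HeLa Kyoto cells arrested at G1/S by double thymidine block, proteins quantified by TMT10plex mass spectrometry in mild NP-40 versus SDS extracts, three biological replicates.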
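Wherever thermal stability score vs G1/S (z-score of summed log2 fold changes over temperatures) is given: synchronized HeLa Kyoto cells, proteins quantified by TMT10plex mass spectrometry, three biological replicates, mitosis taken 0.5 h after nocodazole release, G1/S directly after double thymidine block.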

Sequence of MARK2 (chain, as listed by the source): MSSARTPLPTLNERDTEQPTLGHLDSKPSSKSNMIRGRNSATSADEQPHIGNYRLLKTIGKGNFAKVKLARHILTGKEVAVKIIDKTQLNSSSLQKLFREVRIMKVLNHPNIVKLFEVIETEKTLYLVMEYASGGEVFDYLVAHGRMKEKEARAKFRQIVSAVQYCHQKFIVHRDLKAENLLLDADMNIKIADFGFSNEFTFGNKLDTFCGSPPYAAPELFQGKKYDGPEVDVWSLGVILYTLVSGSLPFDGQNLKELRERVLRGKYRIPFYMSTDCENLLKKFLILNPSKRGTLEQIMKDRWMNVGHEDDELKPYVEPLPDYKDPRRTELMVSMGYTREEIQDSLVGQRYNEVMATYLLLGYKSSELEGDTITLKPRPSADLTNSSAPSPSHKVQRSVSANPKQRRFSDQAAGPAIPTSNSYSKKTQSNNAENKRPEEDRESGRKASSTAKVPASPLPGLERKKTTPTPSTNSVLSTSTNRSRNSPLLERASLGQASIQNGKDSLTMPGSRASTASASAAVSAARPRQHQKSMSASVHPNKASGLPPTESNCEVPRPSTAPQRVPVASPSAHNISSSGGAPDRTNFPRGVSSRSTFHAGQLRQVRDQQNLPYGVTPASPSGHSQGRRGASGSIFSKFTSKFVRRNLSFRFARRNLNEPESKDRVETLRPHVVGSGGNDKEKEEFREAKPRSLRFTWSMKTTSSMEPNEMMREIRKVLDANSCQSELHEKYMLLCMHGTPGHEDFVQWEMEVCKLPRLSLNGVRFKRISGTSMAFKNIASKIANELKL

“MAQLGKLLKEQKYDRQLRLWGDHGQEALESAHVCLINATATGTEILKNLVLPGIGSFTIIDGNQVSGEDAGNNFFLQRSSIGKNRAEAAMEFLQELNSDVSGSFVEESPENLLDNDPSFFCRFTVVVATQLPESTSLRLADVLWNSQIPLLICRTYGLVGYMRIIIKEHPVIESHPDNALEDLRLDKPFPELREHFQSYDLDHMEKKDHSHTPWIVIIAKYLAQWYSETNGRIPKTYKEKEDFRDLIRQGILKNENGAPEDEENFEEAIKNVNTALNTTQIPSSIEDIFNDDRCINITKQTPSFWILARALKEFVAKEGQGNLPVRGTIPDMIADSGKYIKLQNVYREKAKKDAAAVGNHVAKLLQSIGQAPESISEKELKLLCSNSAFLRVVRCRSLAEEYGLDTINKDEIISSMDNPDNEIVLYLMLRAVDRFHKQQGRYPGVSNYQVEEDIGKLKSCLTGFLQEYGLSVMVKDDYVHEFCRYGAAEPHTIAAFLGGAAAQEVIKIITKQFVIFNNTYIYSGMSQTSATFQL [NAE1]”: the “solubility in G1/S (log2)” value in data set [1] came out at 0.0839. The melting temperature in data set [2] (cell cycle stage: G1/S) was 51.5 °C; in data set [2] (cell cycle stage: mitosis), 51.3 °C. The “solubility change mitosis (log2)” value in data set [3] is -0.191. The thermal stability score in data set [4] (setting [5]) worked out at 0.0621; in data set [4] (cell cycle stage: mitosis), 0.146.

Take “MAQVEKRGGLLRKSSASKKPLKEKVVLMYDEIFMTEDPSKCSPRFWEELFLMKVNLEYLEGKLESLDGEELMKIKDNINCLFQHCIQALGEEHPIRVVNALQTLCALIRGVHQKNKSTSGFDIINMLMGFDKAELCMKNLMESLDSLLCAEGSESLKSLCLKLLLCLVTVTDNISQNTILEYVMINSIFEAILQILSHPPSRREHGYDAVVLLALLVNYRKYESVNPYIVKLSIVDDEATLNGMGLVIAQALSEYNRQYKDKEEEHQSGFFSALTNMVGSMFIADAHEKISVQTNEAILLALYEAVHLNRNFITVLAQSHPEMGLVTTPVSPAPTTPVTPLGTTPPSSDVISSVELPLDADVQTSNLLITFLKYSSIVMQDTKDEHRLHSGKLCLIILTCIAEDQYANAFLHDDNMNFRVNLHRMPMRHRKKAADKNLPCRPLVCAVLDLMVEFIVTHMMKEFPMDLYIRCIQVVHKLLCYQKKCRVRLHYTWRELWSALINLLKFLMSNETVLLAKHNIFTLALMIVNLFNMFITYGDTFLPTPSSYDELYYEIIRMHQSFDNLYSMVLRLSTNAGQWKEAASKVTHALVNIRAIINHFNPKIESYAAVNHISQLSEEQVLEVVRANYDTLTLKLQDGLDQYERYSEQHKEAAFFKELVRSISTNVRRNLAFHTLSQEVLLKEFSTIS [C10ORF76]”: the “solubility in G1/S (log2)” value in data set [1] was -0.113. Besides, the melting temperature was determined as 54.1 °C in data set [2] (cell cycle stage: G1/S) and 55.3 °C in data set [2] (cell cycle stage: mitosis). Besides, the “solubility change mitosis (log2)” value in data set [3] was -0.122. The thermal stability score in data set [4] (setting [5]) was -0.1; in data set [4] (cell cycle stage: mitosis), -1.32.

In the case of “MAREMTILGSAVLTLLLAGYLAQQYLPLPTPKVIGIDLGTTYCSVGVFFPGTGKVKVIPDENGHISIPSMVSFTDNDVYVGYESVELADSNPQNTIYDAKRFIGKIFTAEELEAEIGRYPFKVLNKNGMVEFSVTSNETITVSPEYVGSRLLLKLKEMAEAYLGMPVANAVISVPAEFDLKQRNSTIEAANLAGLKILRVINEPTAAAMAYGLHKADVFHVLVIDLGGGTLDVSLLNKQGGMFLTRAMSGNNKLGGQDFNQRLLQYLYKQIYQTYGFVPSRKEEIHRLRQAVEMVKLNLTLHQSAQLSVLLTVEEQDRKEPHSSDTELPKDKLSSADDHRVNSGFGRGLSDKKSGESQVLFETEISRKLFDTLNEDLFQKILVPIQQVLKEGHLEKTEIDEVVLVGGSTRIPRIRQVIQEFFGKDPNTSVDPDLAVVTGVAIQAGIDGGSWPLQVSALEIPNKHLQKTNFN [HSPA13]”, the “solubility in G1/S (log2)” value in data set [1] worked out at 0.088. The results for the melting temperature in data set [2] (cell cycle stage: G1/S) and in data set [2] (cell cycle stage: mitosis) were 54.6 °C and 53.3 °C, respectively. Moreover, the “solubility change mitosis (log2)” value in data set [3] worked out at 0.00641. In addition, the values for the thermal stability score in data set [4] (setting [5]) and in data set [4] (cell cycle stage: mitosis) were 4.12 and 4.92, respectively.

With “MARGLGAPHWVAVGLLTWATLGLLVAGLGGHDDLHDDLQEDFHGHSHRHSHEDFHHGHSHAHGHGHTHESIWHGHTHDHDHGHSHEDLHHGHSHGYSHESLYHRGHGHDHEHSHGGYGESGAPGIKQDLDAVTLWAYALGATVLISAAPFFVLFLIPVESNSPRHRSLLQILLSFASGGLLGDAFLHLIPHALEPHSHHTLEQPGHGHSHSGQGPILSVGLWVLSGIVAFLVVEKFVRHVKGGHGHSHGHGHAHSHTRGSHGHGRQERSTKEKQSSEEEEKETRGVQKRRGGSTVPKDGPVRPQNAEEEKRGLDLRVSGYLNLAADLAHNFTDGLAIGASFRGGRGLGILTTMTVLLHEVPHEVGDFAILVQSGCSKKQAMRLQLLTAVGALAGTACALLTEGGAVGSEIAGGAGPGWVLPFTAGGFIYVATVSVLPELLREASPLQSLLEVLGLLGGVIMMVLIAHLE [SLC39A7]”, the “solubility in G1/S (log2)” value in data set [1] is -0.392. Further, the melting temperature in data set [2] (cell cycle stage: G1/S) came to 59.2 °C; in data set [2] (cell cycle stage: mitosis), 57.1 °C. In data set [3], the “solubility change mitosis (log2)” value was -0.00492. The thermal stability score in data set [4] (setting [5]) was -0.93; in data set [4] (cell cycle stage: mitosis), -2.25.

In the case of MARK2, in data set [1], the “solubility in G1/S (log2)” value is -0.0826. Also, the melting temperature was 49.6 °C in data set [2] (cell cycle stage: G1/S) and 48.7 °C in data set [2] (cell cycle stage: mitosis). The “solubility change mitosis (log2)” value in data set [3] came out at 0.0431. Moreover, the results for the thermal stability score in data set [4] (setting [5]) and in data set [4] (cell cycle stage: mitosis) were 0.513 and 0.569, respectively.

Values taken from the supplement of paper PMC5998384.
